*1 amine or outer side, *2 acyl side, *3 side chain or, on linkers, in order; H or OH if unused. Where no end group is shown, it is not given here. Side-chain parts run from the residue outwards. [ ]: non-standard residue; d: D form. The star is where a group is joined. αMePhe(2-F) = C[C@](N)(Cc1ccccc1F)C(=O)O; γGlu = O=C(O)[C@H](CCC(=O)[*:2])N[*:1]; αMeY = C[C@](N)(Cc1ccc(O)cc1)C(=O)O; 4Pal = N[C@@H](Cc1ccncc1)C(=O)O; αMeL = CC(C)C[C@](C)(N)C(=O)O; Lauroyl = CCCCCCCCCCCC(=O)*; Orn = NCCC[C@H](N)C(=O)O; AEEA = NCCOCCOCC(=O)O; Aib = CC(C)(N)C(=O)O
B1: Y-Aib-EGT-αMeF(2F)-TSD-4Pal-Aib-I-αMeL-LD-Orn-K((2-[2-(2-Amino-ethoxy)-ethoxy]-acetyl)2-(γ-Glu)-CO-(CH2)10-CH3)AQ-Aib-TFI-(D-Glu)-αMeY-LIK((2-[2-(2-Amino-ethoxy … (peptide)
peptide: YXEGTXTSDXXIXLDXKAQXTFIXXLIKGGPSSGAPPPS
modifications: Aib2, αMeF(2F)6, 4Pal10, Aib11, αMeL13, Orn16, K17(Z1), Aib20, D-Glu24, αMeY25, K28(Z1), C-term NH2; Z1=AEEA2-(γ-Glu)-CO-(CH2)10-CH3
notes: T at position 21
B2: Y-Aib-EGT-αMeF(2F)-TSD-4Pal-Aib-I-αMeL-LD-Orn-K((2-[2-(2-Amino-ethoxy)-ethoxy]-acetyl)3-(γ-Glu)-CO-(CH2)10-CH3)AQ-Aib-K((2-[2-(2-Amino-ethoxy)-ethoxy]-acetyl)3- … (peptide)
peptide: YXEGTXTSDXXIXLDXKAQXKFIXXLIEGGPSSGAPPPS
modifications: Aib2, αMeF(2F)6, 4Pal10, Aib11, αMeL13, Orn16, K17(Z1), Aib20, K21(Z1), D-Glu24, αMeY25, C-term NH2; Z1=AEEA3-(γ-Glu)-CO-(CH2)10-CH3
B3: Y-Aib-EGT-αMeF(2F)-TSD-4Pal-Aib-I-αMeL-LD-Orn-K((2-[2-(2-Amino-ethoxy)-ethoxy]-acetyl)-(γ-Glu)-(10-(4-carboxyphenoxy)decanoyl))AQ-Aib-K((2-[2-(2-Amino-ethoxy)-e … (peptide)
peptide: YXEGTXTSDXXIXLDXKAQXKFIXXLIEGGPSSGAPPPS
modifications: Aib2, αMeF(2F)6, 4Pal10, Aib11, αMeL13, Orn16, K17(Z1), Aib20, K21(Z1), D-Glu24, αMeY25, C-term NH2; Z1=AEEA-(γ-Glu)-(10-(4-carboxyphenoxy)decanoyl)
B4: Y-Aib-EGT-αMeF(2F)-TSD-4Pal-Aib-I-αMeL-LD-Orn-K((2-[2-(2-Amino-ethoxy)-ethoxy]-acetyl)-(γ-Glu)-CO-(CH2)12-CO2H)AQ-Aib-K((2-[2-(2-Amino-ethoxy)-ethoxy]-acetyl)-( … (peptide)
peptide: YXEGTXTSDXXIXLDXKAQXKFIXXLIEGGPSSGAPPPS
modifications: Aib2, αMeF(2F)6, 4Pal10, Aib11, αMeL13, Orn16, K17(Z1), Aib20, K21(Z1), D-Glu24, αMeY25, C-term NH2; Z1=AEEA-(γ-Glu)-CO-(CH2)12-CO2H
B5: Y-Aib-EGT-αMeF(2F)-TSD-4Pal-Aib-I-αMeL-LD-Orn-K((2-[2-(2-Amino-ethoxy)-ethoxy]-acetyl)2-(γ-Glu)-CO-(CH2)10-CH3)AQ-Aib-EFI-(D-Glu)-αMeY-LIEGGPSSGAPPPSK((2-[2-(2- … (peptide)
peptide: YXEGTXTSDXXIXLDXKAQXEFIXXLIEGGPSSGAPPPSK
modifications: Aib2, αMeF(2F)6, 4Pal10, Aib11, αMeL13, Orn16, K17(Z1), Aib20, D-Glu24, αMeY25, K40(Z1), C-term NH2; Z1=AEEA2-(γ-Glu)-CO-(CH2)10-CH3
B6: Y-Aib-EGT-αMeF(2F)-TSD-4Pal-Aib-I-αMeL-LD-Orn-K((2-[2-(2-Amino-ethoxy)-ethoxy]-acetyl)-(γ-Glu)-(10-(4-carboxyphenoxy)decanoyl))AQ-Aib-EFIe-αMeY-LIK((2-[2-(2-Ami … (peptide)
peptide: YXEGTXTSDXXIXLDXKAQXEFIXXLIKGGPSSGAPPPS
modifications: Aib2, αMeF(2F)6, 4Pal10, Aib11, αMeL13, Orn16, K17(Z1), Aib20, D-Glu24 (printed e), αMeY25, K28(Z1), C-term NH2; Z1=AEEA-(γ-Glu)-(10-(4-carboxyphenoxy)decanoyl)
B7: Y-Aib-EGT-αMeF(2F)-TSD-4Pal-Aib-I-αMeL-LD-Orn-K((2-[2-(2-Amino-ethoxy)-ethoxy]-acetyl)-(y-Glu)-(10-(4-carboxyphenoxy)decanoyl))AQ-Aib-EFI-(D-Glu)-αMeY-LIEGGPSSG … (peptide)
peptide: YXEGTXTSDXXIXLDXKAQXEFIXXLIEGGPSSGAPPPSK
modifications: Aib2, αMeF(2F)6, 4Pal10, Aib11, αMeL13, Orn16, K17(Z1), Aib20, D-Glu24, αMeY25, K40(Z1), C-term NH2; Z1=AEEA-(γ-Glu)-(10-(4-carboxyphenoxy)decanoyl)
B8: Y-Aib-EGT-αMeF(2F)-TSD-4Pal-Aib-I-αMeL-LD-Orn-QAQ-Aib-Orn-FIK((2-[2-(2-Amino-ethoxy)-ethoxy]-acetyl)2-(γ-Glu)-CO-(CH2)12-CO2H)-αMeY-LIK((2-[2-(2-Amino-ethoxy)-e … (peptide)
peptide: YXEGTXTSDXXIXLDXQAQXXFIKXLIKGGPSSGAPPPS
modifications: Aib2, αMeF(2F)6, 4Pal10, Aib11, αMeL13, Orn16, Aib20, Orn21, K24(Z1), αMeY25, K28(Z1), C-term NH2; Z1=AEEA2-(γ-Glu)-CO-(CH2)12-CO2H
B9: Y-Aib-EGT-αMeF(2F)-TSD-4Pal-Aib-G-αMeL-LD-Orn-QAQ-Aib-Orn-FIK((2-[2-(2-Amino-ethoxy)-ethoxy]-acetyl)2-(γ-Glu)-CO-(CH2)12-CO2H)-αMeY-LIK((2-[2-(2-Amino-ethoxy)-e … (peptide)
peptide: YXEGTXTSDXXGXLDXQAQXXFIKXLIKGGPSSGAPPPS
modifications: Aib2, αMeF(2F)6, 4Pal10, Aib11, αMeL13, Orn16, Aib20, Orn21, K24(Z1), αMeY25, K28(Z1), C-term NH2; Z1=AEEA2-(γ-Glu)-CO-(CH2)12-CO2H
notes: G at position 12
B10: Y-Aib-EGT-αMeF(2F)-TSD-4Pal-Aib-I-αMeL-LD-Orn-K((2-[2-(2-Amino-ethoxy)-ethoxy]-acetyl)2-(γ-Glu)-CO-(CH2)10-CH3)AQ-Aib-Orn-FI-(D-Glu)-αMeY-LIK((2-[2-(2-Amino-eth … (peptide)
peptide: YXEGTXTSDXXIXLDXKAQXXFIXXLIKGGPSSGAPPPS
modifications: Aib2, αMeF(2F)6, 4Pal10, Aib11, αMeL13, Orn16, K17(Z1), Aib20, Orn21, D-Glu24, αMeY25, K28(Z1), C-term NH2; Z1=AEEA2-(γ-Glu)-CO-(CH2)10-CH3
B11: Y-Aib-EGT-αMeF(2F)-TSDK((2-[2-(2-Amino-ethoxy)-ethoxy]-acetyl)2-(γ-Glu)-CO-(CH2)10-CH3)-Aib-I-αMeL-LD-Orn-K((2-[2-(2-Amino-ethoxy)-ethoxy]-acetyl)2-(γ-Glu)-CO-( … (peptide)
peptide: YXEGTXTSDKXIXLDXKAQXXFIXXLIEGGPSSGAPPPS
modifications: Aib2, αMeF(2F)6, K10(Z1), Aib11, αMeL13, Orn16, K17(Z1), Aib20, Orn21, D-Glu24, αMeY25, C-term NH2; Z1=AEEA2-(γ-Glu)-CO-(CH2)10-CH3
B12: Y-Aib-EGT-αMeF(2F)-TSD-4Pal-Aib-I-αMeL-LD-Orn-K((2-[2-(2-Amino-ethoxy)-ethoxy]-acetyl)2-(γ-Glu)-CO-(CH2)10-CH3)AQ-Aib-Orn-FI-(D-Glu)-αMeY-LIEGGPSSGAPPPSK((2-[2- … (peptide)
peptide: YXEGTXTSDXXIXLDXKAQXXFIXXLIEGGPSSGAPPPSK
modifications: Aib2, αMeF(2F)6, 4Pal10, Aib11, αMeL13, Orn16, K17(Z1), Aib20, Orn21, D-Glu24, αMeY25, K40(Z1), C-term NH2; Z1=AEEA2-(γ-Glu)-CO-(CH2)10-CH3
B13: Y-Aib-EGT-αMeF(2F)-TSD-4Pal-SI-αMeL-LD-Orn-K((2-[2-(2-Amino-ethoxy)-ethoxy]-acetyl)2-(γ-Glu)-CO-(CH2)14-CH3)AQ-Aib-EFI-(D-Glu)-αMeY-LIEGGK((2-[2-(2-Amino-ethoxy … (peptide)
peptide: YXEGTXTSDXSIXLDXKAQXEFIXXLIEGGKSSGAPPPS
modifications: Aib2, αMeF(2F)6, 4Pal10, αMeL13, Orn16, K17(Z1), Aib20, D-Glu24, αMeY25, K31(Z1), C-term NH2; Z1=AEEA2-(γ-Glu)-CO-(CH2)14-CH3

Legend:
[1] = molecular target: T1, human glucagon receptor (human, UniProt P47871 26-477); assay: SPA competition vs [125I]-Gcg, hGcgR membranes
T1 construct: whole, on cells; also called hGCGR; hGcgR
Protocol: The binding buffer contains 25 mM 4-(2-hydroxyethyl)-1-piperazineethanesulfonic acid (HEPES), pH 7.4, 2.5 mM CaCl₂, 1 mM MgCh, 0.1% (w/v) bacitracin (Research Products), 0.003% (w/v) Polyoxyethylenesorbitan monolaurate (TWEEN®-20), and Roche Complete™ Protease Inhibitors without EDTA. […] Plates are sealed and mixed on a plate shaker (setting 6) for 1 minute and read with a PerkinElmer Trilux MicroBeta® scintillation counter after 12 hours of incubation/settling time at room temperature.
Data are analyzed using four-parameter (curve maximum, curve minimum, IC₅₀, Hill slope) nonlinear regression routines (Genedata Screener, version 12.0.4, Genedata AG, Basal, Switzerland). […] Values for Kᵢ are reported as the geometric mean, with error expressed as the standard error of the mean (SEM) and n is equal to the number of independent replicates (determined in assays performed on different days).

[2] = molecular target: T2, human GLP-1 receptor (human, UniProt P43220 24-463); assay: SPA competition vs [125I]-GLP-1, hGLP-1R membranes
T2 construct: whole, on cells; also called hGLP-1R; human glucagon-like peptide-1 receptor
Method in brief: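 Kᵢ values are geometric means (SEM) over replicates run on separate days, derived from IC₅₀ of four-parameter curve fits. Buffer: HEPES 25 mM pH 7.4 with CaCl₂ 2.5 mM, MgCl₂ 1 mM, bacitracin 0.1%, TWEEN-20 0.003%, EDTA-free protease inhibitors.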

[3] = molecular target: T3, human GIP receptor (human, UniProt P48546 22-466); assay: SPA competition vs [125I]-GIP, hGIPR membranes
T3 construct: whole, on cells; also called hGIPR; human glucose-dependent insulinotropic polypeptide receptor
T3 sequence (looked up): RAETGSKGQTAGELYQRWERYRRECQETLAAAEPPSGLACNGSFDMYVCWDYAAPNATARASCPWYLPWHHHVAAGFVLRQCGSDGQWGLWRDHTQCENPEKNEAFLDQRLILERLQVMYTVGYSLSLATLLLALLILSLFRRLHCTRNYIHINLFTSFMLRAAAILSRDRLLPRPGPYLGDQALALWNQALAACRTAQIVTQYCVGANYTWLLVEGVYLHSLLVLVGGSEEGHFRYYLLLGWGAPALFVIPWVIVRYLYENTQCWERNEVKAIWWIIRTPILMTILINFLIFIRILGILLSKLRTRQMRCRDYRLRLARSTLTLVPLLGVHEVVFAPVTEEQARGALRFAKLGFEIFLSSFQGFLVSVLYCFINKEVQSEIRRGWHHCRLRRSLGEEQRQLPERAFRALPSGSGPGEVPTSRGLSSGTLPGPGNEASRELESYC

T1 sequence (P47871 26-477): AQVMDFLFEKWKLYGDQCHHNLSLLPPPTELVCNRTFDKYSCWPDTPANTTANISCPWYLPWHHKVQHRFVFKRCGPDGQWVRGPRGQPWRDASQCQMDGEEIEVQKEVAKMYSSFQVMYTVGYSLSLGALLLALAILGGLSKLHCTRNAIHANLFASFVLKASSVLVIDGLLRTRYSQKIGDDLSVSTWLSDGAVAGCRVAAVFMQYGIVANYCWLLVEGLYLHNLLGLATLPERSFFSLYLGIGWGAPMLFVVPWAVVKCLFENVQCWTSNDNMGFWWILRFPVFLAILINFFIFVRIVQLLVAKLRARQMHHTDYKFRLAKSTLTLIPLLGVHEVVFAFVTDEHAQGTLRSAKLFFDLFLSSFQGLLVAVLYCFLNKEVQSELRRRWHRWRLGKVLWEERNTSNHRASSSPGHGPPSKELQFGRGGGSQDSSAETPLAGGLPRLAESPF

| Binder | Ki [1] [nM] | Ki [2] [nM] | Ki [3] [nM] |
| --- | --- | --- | --- |
| B1 | 60.6 | 0.265 | 0.0166 |
| B2 | 12.2 | 0.194 | 0.0218 |
| B3 | 118 | 0.673 | 0.046 |
| B4 | 230 | 1.85 | 0.0782 |
| B5 | 6.28 | 0.168 | 0.0163 |
| B6 | 238 | 1.22 | 0.0578 |
| B7 | 360 | 0.765 | 0.053 |
| B8 | 289 | 0.346 | 0.0279 |
| B9 | 592 | 0.386 | 0.0539 |
| B10 | 33.7 | 0.194 | 0.0229 |
| Y[Aib]EGT[αMePhe(2-F)]TSDK([AEEA-AEEA-γGlu-Lauroyl])[Aib]I[αMeL]LD[Orn]K([AEEA-AEEA-γGlu-Lauroyl])AQ[Aib][4Pal]FI[dE][αMeY]LIEGGPSSGAPPPS-NH2 | 51.8 | 0.156 | 0.0152 |
| B11 | 58.4 | 0.167 | 0.0214 |
| B12 | 3.59 | 0.0684 | 0.0174 |
| B13 | 1.46 | 0.362 | 0.0501 |

Source: patent US20230265151A1, “GIP/GLP1 CO-AGONIST COMPOUNDS” (priority 2020, published 2023)
